Results: the supplement of paper PMC10724198
± gives the standard deviation of the averaged measurements.

test system: Saccharomyces cerevisiae; experiment: protein stability index of tFT-peptide fusion (C-terminal peptide) (PSI (0-1 scale)); higher = more stable (slower turnover); conditions: genetic background: wild type; temperature: 30 C
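Further: PSI is a weighted mean of sequencing reads over stability bins, variants kept only with over 10 reads, mCherry proximal and sfGFP distal, peptide attached via GGGS linker.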

Sequence	protein stability index
VPVALWEAPAVH	0.601 ± 0.013
VPVIGRSCPFLP	0.6581 ± 0.0013
VPYFRSMSSLSI	0.6347 ± 0.0039
VQKITRLVDKVV	0.813 ± 0.065
VQNPVTTPQEQF	0.684 ± 0.043
VQTYVRARVDRL	0.711 ± 0.024
VRAGFRAWGVSE	0.572 ± 0.2
VRAHARPTKGKP	0.682 ± 0.059
VRATNLSSVGIF	0.619 ± 0.011
VREFRRAVFVGS	0.544 ± 0.02
VREGTKDGGSRV	0.544 ± 0.042
VRESLGANACSR	0.69 ± 0.058
VRFARSGPAHVC	0.6607 ± 0.003
VRFKDFDDLGSL	0.704 ± 0.067
VRGRGRSWRRVK	0.758 ± 0.18
VRGRLGGGVGRA	0.686 ± 0.079
VRGVGGLWGGAV	0.785 ± 0.17
VRHGERGGGLGD	0.782 ± 0.06
VRHSCRTTTPPS	0.708 ± 0.009
VRNKGVAKDHCP	0.661 ± 0.064
VRNPLRSFSGDA	0.64 ± 0.049
VRNVVYWEFVVE	0.585 ± 0.063
VRPPPPPRSSPL	0.742 ± 0.055

Sequence	protein stability index
VRPQLGNHRILV	0.609 ± 0.0067
VRQGERGGGLGD	0.747 ± 0.038
VRRARATLYSWL	0.693 ± 0.052
VRRETGPPRAPT	0.6717 ± 0.0019
VRRVVDESKTRD	0.659 ± 0.038
VRSGKGKNRWNK	0.719 ± 0.024
VRSLFSFRLRGS	0.633 ± 0.056
VRVCGPSCFRPG	0.628 ± 0.05
VRWLLTSHARLT	0.484 ± 0.12
VRWSRMGCNWGG	0.585 ± 0.093
VSAPTHVSRVTQ	0.649 ± 0.0088
VSARWSTSLCLS	0.533 ± 0.015
VSDGGCIFHRRT	0.704 ± 0.055
VSEGFVLGGSCG	0.663 ± 0.0074
VSGPTPAPLSSL	0.695 ± 0.028
VSGSSAIFLLWC	0.706 ± 0.1
VSHKETNKIKPN	0.701 ± 0.097
VSIAYARHGDSV	0.693 ± 0.028
VSKYNGIKRRNG	0.6 ± 0.0085
VSLCYGGGFWGG	0.722 ± 0.014
VSLVLESFFGRV	0.719 ± 0.014
VSPFSILLPVPL	0.608 ± 0.017
VSPLFQDFSIIN	0.717 ± 0.06

Sequence	protein stability index
VSPTGRRGYGRS	0.66754 ± 0.00015
VSRGESEVKAGG	0.673 ± 0.1
VSRGRVKETGEE	0.713 ± 0.038
VSRKEQYPEAQE	0.625 ± 0.033
VSSFALDVGFHF	0.638 ± 0.068
VSSFGHTFCGWI	0.618 ± 0.018
VSSPLLFCSIFL	0.675 ± 0.026
VSSTLVARTVWC	0.69 ± 0.035
VTGGGVGHWGWW	0.761 ± 0.052
VTGSGVGGSPEC	0.683 ± 0.042
VTLFFLFSLSPP	0.56 ± 0.013
VTLWGFFRVLSL	0.686 ± 0.043
VVARFDTILLWS	0.608 ± 0.06
VVARGGGGGSGA	0.583 ± 0.016
VVAVRLPNVRHY	0.655 ± 0.018
VVAVTTIDSTHL	0.682 ± 0.033
VVFASNGSYVLG	0.672 ± 0.041
VVFTSISFGLFV	0.572 ± 0.044
VVGAHLWSGFSA	0.711 ± 0.013
VVGGAGRRYVEG	0.702 ± 0.036
VVGKKQTGEKEK	0.725 ± 0.048
VVGRWRVCNVGL	0.626 ± 0.05
VVGVLRVRSGEN	0.606 ± 0.03

Sequence	protein stability index
VVGYAIRVRSGL	0.593 ± 0.018
VVLWSTGRVLYG	0.699 ± 0.025
VVPDVGVVTSPA	0.649 ± 0.072
VVRCVLSQKCLV	0.578 ± 0.015
VVSRTCVRWGLV	0.655 ± 0.039
VVSVQHEVIIFL	0.611 ± 0.05
VVSWLGAGYSVR	0.7 ± 0.071
VVWLWGAGWGCD	0.747 ± 0.022
VVYFGVVVEGQV	0.514 ± 0.032
VWAGGSLLGCVG	0.686 ± 0.044
VWAVALSRQGPC	0.689 ± 0.016
VWFFSHFCGVRF	0.686 ± 0.012
VWGAGGGVWGLG	0.793 ± 0.0085
VWGRRVMESHGE	0.628 ± 0.042
VWLGTCLPRRAV	0.725 ± 0.13
VWRCWGGKGQDS	0.729 ± 0.037
VWRRCVPGPASP	0.67 ± 0.0097
VWSSCAGDVLFD	0.734 ± 0.039
VWVFGLGLGRVV	0.691 ± 0.032
VWVGSLWEHPTV	0.781 ± 0.17
VWVWVGGGSRGC	0.7121 ± 0.0041
VYAETMTKELRG	0.69 ± 0.053
VYDCDVRHFGQC	0.761 ± 0.053

Sequence	protein stability index
VYHMFHLGPSFD	0.7051 ± 0.0015
VYLEWQFGIKEL	0.648 ± 0.052
VYMWFVDSPGGS	0.682 ± 0.037
VYSLQSFSVRRY	0.704 ± 0.018
VYYRRFTGGGLY	0.583 ± 0.016
WACYRLGCGGSW	0.774 ± 0.041
WAFSAFDHCVAS	0.665 ± 0.058
WCAYRPGSTGHR	0.731 ± 0.058
WCLDVGSVSWPF	0.79432 ± 0.0005
WCNLSFEDNYVT	0.658 ± 0.018
WCWCSLVVDGTA	0.5707 ± 0.0047
WFGAECVCVRGG	0.762 ± 0.2
WFHSANLFLSLS	0.705 ± 0.077
WFPNQCFENEIP	0.742 ± 0.054
WFRCCGVLGCLG	0.657 ± 0.019
WFRGRIFLFPLV	0.628 ± 0.014
WGDGRGRVWEIS	0.674 ± 0.048
WGEGRGRVWEIS	0.665 ± 0.036
WGGCGSVGRGGA	0.739 ± 0.052
WGGGGGGDCVGA	0.6732 ± 0.0029
WGGGGGLCGMWA	0.679 ± 0.032
WGGGGPGWGSRG	0.621 ± 0.027
WGGRNWDGRGCG	0.612 ± 0.068

Sequence	protein stability index
WGGWGVGGRVLW	0.675 ± 0.066
WGIQGIKFFVGA	0.7111 ± 0.0032
WGISRSLRPGEV	0.739 ± 0.12
WGQSMFSLLVSI	0.542 ± 0.035
WGRRVRVEGVVL	0.613 ± 0.022
WGSGGGRDGCGV	0.655 ± 0.083
WGTVIYGVGSGQ	0.691 ± 0.036
WGVCVIDSWQEG	0.6706 ± 0.0032
WGVGVCSRVLRS	0.674 ± 0.026
WGVVAVSGRLGA	0.78 ± 0.012
WGWGVGWSGACL	0.7116 ± 0.0017
WGWGVLRRRVGA	0.76 ± 0.082
WGWGWWEMVGRT	0.674 ± 0.0039
WGWSGGEDCLEG	0.64 ± 0.0073
WHDCLYLWADLG	0.693 ± 0.04
WILFQAGSREIR	0.701 ± 0.017
WISARQHQKTRL	0.702 ± 0.065
WKQEKYTFKKRT	0.707 ± 0.032
WLFGSFSLLFWL	0.522 ± 0.015
WLFVALRGRFEF	0.59 ± 0.042
WLKVRINFYKRK	0.52 ± 0.038
WLRCGCVKWAGG	0.657 ± 0.013
WLVPLDYKEGVV	0.687 ± 0.035

Sequence	protein stability index
WNQRMEPCLMSS	0.65 ± 0.026
WPASLCRLGSVH	0.64894 ± 0.00014
WPGRTGANTRSG	0.671 ± 0.11
WPLLLHLLHLLR	0.697 ± 0.12
WPLPRPEFCGAP	0.6316 ± 0.0011
WPLVGLIGVPGR	0.668 ± 0.035
WPMYSVIKAQLK	0.638 ± 0.015
WPPPPPPPASPH	0.719 ± 0.071
WPRPSLPPLYAP	0.685 ± 0.051
WPYDRHTRHRET	0.767 ± 0.092
WPYEPGSSIVNG	0.717 ± 0.01
WRKMSNDIRGRW	0.799 ± 0.11
WRLAVDLGRFCT	0.617 ± 0.16
WRSGLRGPAIYG	0.707 ± 0.018
WRSLVTVSTTAC	0.558 ± 0.042
WSLGLVGRGFWG	0.73 ± 0.11
WSLGRRKLLHRI	0.666 ± 0.064
WSLLLLPEFSLR	0.705 ± 0.012
WSVGYLSVALYR	0.615 ± 0.014
WSWEVTSSVCRI	0.732 ± 0.058
WTFPWICFLGFG	0.589 ± 0.029
WTRFSEKIVILR	0.582 ± 0.026
